{"source": "patent US7608407B2", "about": "“Fluorescence polarization assay for determining histidine decarboxylase activity” (Boehringer Ingelheim Pharmaceuticals, Inc., priority 2004, dated 2009)", "proteins": {"B1": {"name": "HDC (54 Kd form) (Homo sapiens; S148Q) (protein)", "chain": "MMEPEEYRERGREMVDYICQYLSTVRERRVTPDVQPGYLRAQLPESAPEDPDSWDSIFGDIERIIMPGVVHWQSPHMHAYYPALTSWPSLLGDMLADAINCLGFTWASSPACTELEMNVMDWLAKMLGLPEHFLHHHPSSQGGGVLQQTVSESTLIALLAARKNKILEMKTSEPDADESCLNARLVAYASDQAHSSVEKAGLISLVKMKFLPVDDNFSLRGEALQKAIEEDKQRGLVPVFVCATLGTTGVCAFDCLSELGPICAREGLWLHIDAAYAGTAFLCPEFRGFLKGIEYADSFTFNPSKWMMVHFDCTGFWVKDKYKLQQTFSVNPIYLRHANSGVATDFMHWQIPLSRRFRSVKLWFVIRSFGVKNLQAHVRHGTEMAKYFESLVRNDPSFEIPAKRHLGLVVFRLKGPNCLTENVLKEIAKAGRLFLIPATIQDKLIIRFTVTSQFTTRDDILRDWNLIRDAATLILSQ"}}, "substrate": "N[C@@H](Cc1c[nH]cn1)C(=O)O", "experiment": "Km of HDC for its substrate histidine", "type": "biochemical, human", "conditions": "other: 54 Kd form, data not shown", "data": [{"protein": "B1", "values": [{"measurement": "Km", "result": 275, "unit": "µM"}]}]}
